Measurements taken from PMC12218921, “An adaptive peptide-binding site in ubiquitin receptor hRpn13 revealed by structural studies” (Nature Communications, 2025).

Target: T1, hRpn13_ΔMTT (Homo sapiens, UniProt Q16186)
T1 construct: recombinant plasmid of hRpn13 Pru (1–150) cloned into the pRSET vector; GST (N, cleaved yes); residual Gly-Ser (^cG-^dS) left after cleavage; made in house; host or cells: Escherichia coli BL21 (DE3); pGEX-4T-1 plasmid synthesized by GenScript (Addgene 237412)
Test: 1H-15N HSQC NMR, K48-diUb constructs with hRpn13_ΔMTT
Assay type: binding
Details: for ubiquitin contact surface binding (HSQC): varying K48-diUb concentrations
Protocol: To test further whether peptide binding can influence hRpn13 Pru interaction with ubiquitin, we generated K48-linked diubiquitin in which the distal moiety (linked via G76) is extended by a 6-residue linker sequence of GSGGSG followed by either the ENT (K48-diUb^ENT) or EDGEGEE (K48-diUb^EDGEGEE) sequence. Varying concentrations of K48-diUb^ENT, K48-diUb^EDGEGEE, or K48-diUb^D77 were added to 100 μM ^15N-labeled hRpn13_ΔMTT and effects on hRpn13 monitored by recording ^1H-^15N HSQC spectra.
K48-diUb samples were produced by using a similar method as previously described. Briefly, Ub-D77 (proximal), Ub-ENT (proximal), Ub-EDGEGEE (proximal) and Ub-K48R (distal) were added at a final concentration of 0.8 mM to a reaction buffer (50 mM Tris pH 8.0, 5 mM MgCl2, 10 mM creatine phosphate, 0.6 U/mL inorg. PPase, 0.6 U/mL creatine kinase, 2 mM ATP) preincubated with 20 μM E2-25K. 0.1 μM E1 (R&D Systems) was added to this reaction system to initiate diUb synthesis, and it was left for 18 h at 37 °C. The reaction was quenched by dilution with 4 volumes of 50 mM sodium acetate (pH 4.5) and passed over a Mono S 5/50 GL column (GE Healthcare). Further purification was achieved by SEC on a HiLoad 16/600 Superdex 75 prep grade column (GE Healthcare) in buffer C.
All ^1H-^15N HSQC experiments were acquired on samples dissolved in NMR buffer (20 mM sodium phosphate, pH 6.5, 50 mM NaCl, 1 mM TCEP, 10% D2O) unless specified, in which case 2 mM DTT replaced TCEP. The samples were purified in DTT-containing buffer and then exchanged into NMR buffer by using Zeba Protein Desalting columns (Thermo Fisher Scientific). The pH was measured and adjusted to 6.5. All NMR experiments were performed at 25 °C on a Bruker Advance 600 MHz spectrometer equipped with a cryogenically cooled probe. The data were processed by NMRpipe[46] (version 11.5) and spectra visualized and analyzed with NMR-FAM-SPARKY[47] (version 3.190) by using previous chemical shift assignments[12],[23] and NMRbox[48]. The amide nitrogen and hydrogen chemical shift perturbations (CSP) were mapped for each amino acid according to Eq. 1.1 CSP=0.2ΔδN2+ΔδH2
Supplementary Figure 13: NMR experiments of hRpn13 Pru binding to K48-diUb^EDGEGEE, K48-diUb^ENT or K48-diUb^D77. a) ^1H-^15N HSQC spectrum of 0.1 mM ^15N-labeled hRpn13_ΔMTT alone (black) or with equimolar K48-diUb^EDGEGEE (blue), K48-diUb^ENT (red) or K48-diUb^D77 (green). Select residues are labeled. The spectra were acquired on a 600 MHz spectrometer equipped with a cryogenically cooled probe and at 25°C samples with samples dissolved in 20 mM sodium phosphate, pH 6.5, 100 mM NaCl, 1 mM TCEP, 10% D2O.

T1 sequence (Q16186 4-150, stated change not applied): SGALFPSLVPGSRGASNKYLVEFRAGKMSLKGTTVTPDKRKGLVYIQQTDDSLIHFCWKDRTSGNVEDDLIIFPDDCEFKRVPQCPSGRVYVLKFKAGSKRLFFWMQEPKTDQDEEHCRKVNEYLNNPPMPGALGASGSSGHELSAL

Row | Substance | ubiquitin contact surface binding (HSQC) (100 μM 15N-hRpn13_ΔMTT) | bound state hRpn13 F76 signal (100 μM 15N-hRpn13_ΔMTT) | strength of complex with hRpn13 (HSQC) (100 μM 15N-hRpn13_ΔMTT) | hRpn13 D78, A100, and G101 signal shifting compared to K48-diUb^D77 (sub-stoichiometric K48-diUb concentrations)
1 | K48-diUb^D77: K48-linked diubiquitin from Ub-D77 (proximal) and Ub-K48R (distal) [reference compound] | binding to ubiquitin was observed |  |  | 
2 | K48-diUb^EDGEGEE: K48-linked diubiquitin extended by linker GSGGSG followed by EDGEGEE | binding to ubiquitin was observed | A bound state hRpn13 signal was only observed for K48-diUb^EDGEGEE | stronger complex with hRpn13 compared to K48-diUb^ENT or K48-diUb^D77 | more pronounced shifting at sub-stoichiometric concentrations
